These are literature values, as cited in patent publication US20260159592A1, “COMPOSITIONS AND METHODS FOR TARGETING AND KILLING ALPHA-V BETA-3 -POSITIVE CANCER STEM CELLS (CSCS) AND TREATING DRUG RESISTANT AND METASTATIC CANCERS” (The Regents of the University of California, priority 2019, published 2026).

The target of data set [1] is T1, αvβ3 (Homo sapiens, UniProt P05106+P06756). The note with it: Clark et al., Am. J. Pathology 148:1407-1421 (1996).
Another data set has as its system M21 cells. The conditions noted are these: ligands such as vitronectin, fibrinogen and von Willebrand factor; Cheresh and Spiro.
The target in data set [2] is T1, αvβ3. The note with it: Brooks et al. Cell 79:1157-1164 (1994).
Data set [3] deals with T1, αvβ3. The conditions noted are these: Choi et al. (1994); Jones et al. (1996).

T1 sequence (P06756 31-889 limits assumed): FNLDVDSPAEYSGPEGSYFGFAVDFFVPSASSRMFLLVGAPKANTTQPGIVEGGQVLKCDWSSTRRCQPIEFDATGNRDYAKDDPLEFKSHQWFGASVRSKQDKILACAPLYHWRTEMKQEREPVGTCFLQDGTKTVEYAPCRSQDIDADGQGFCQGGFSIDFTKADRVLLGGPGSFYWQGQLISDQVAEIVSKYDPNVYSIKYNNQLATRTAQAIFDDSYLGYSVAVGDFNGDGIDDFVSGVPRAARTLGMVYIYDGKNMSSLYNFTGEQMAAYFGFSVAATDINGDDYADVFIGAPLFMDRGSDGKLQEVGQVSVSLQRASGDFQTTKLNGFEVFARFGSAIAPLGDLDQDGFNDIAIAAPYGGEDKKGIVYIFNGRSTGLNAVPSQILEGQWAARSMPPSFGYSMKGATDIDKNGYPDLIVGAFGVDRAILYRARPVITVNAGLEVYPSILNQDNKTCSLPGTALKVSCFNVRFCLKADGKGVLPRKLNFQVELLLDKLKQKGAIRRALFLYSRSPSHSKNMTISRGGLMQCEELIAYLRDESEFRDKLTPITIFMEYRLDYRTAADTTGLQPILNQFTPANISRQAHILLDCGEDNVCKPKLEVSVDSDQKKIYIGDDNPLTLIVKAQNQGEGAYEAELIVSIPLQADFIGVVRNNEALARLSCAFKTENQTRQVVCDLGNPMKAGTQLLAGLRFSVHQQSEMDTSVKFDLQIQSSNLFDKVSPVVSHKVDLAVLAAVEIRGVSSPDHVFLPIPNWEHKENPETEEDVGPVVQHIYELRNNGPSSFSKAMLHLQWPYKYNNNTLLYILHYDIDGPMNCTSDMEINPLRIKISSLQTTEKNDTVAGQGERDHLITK
T1 sequence (P06756 891-1048 limits assumed): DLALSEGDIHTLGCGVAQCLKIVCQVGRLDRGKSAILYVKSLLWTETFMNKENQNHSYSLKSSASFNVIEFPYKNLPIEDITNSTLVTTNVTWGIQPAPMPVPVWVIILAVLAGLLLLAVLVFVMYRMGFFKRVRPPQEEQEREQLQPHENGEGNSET
T1 sequence (P05106 27-788): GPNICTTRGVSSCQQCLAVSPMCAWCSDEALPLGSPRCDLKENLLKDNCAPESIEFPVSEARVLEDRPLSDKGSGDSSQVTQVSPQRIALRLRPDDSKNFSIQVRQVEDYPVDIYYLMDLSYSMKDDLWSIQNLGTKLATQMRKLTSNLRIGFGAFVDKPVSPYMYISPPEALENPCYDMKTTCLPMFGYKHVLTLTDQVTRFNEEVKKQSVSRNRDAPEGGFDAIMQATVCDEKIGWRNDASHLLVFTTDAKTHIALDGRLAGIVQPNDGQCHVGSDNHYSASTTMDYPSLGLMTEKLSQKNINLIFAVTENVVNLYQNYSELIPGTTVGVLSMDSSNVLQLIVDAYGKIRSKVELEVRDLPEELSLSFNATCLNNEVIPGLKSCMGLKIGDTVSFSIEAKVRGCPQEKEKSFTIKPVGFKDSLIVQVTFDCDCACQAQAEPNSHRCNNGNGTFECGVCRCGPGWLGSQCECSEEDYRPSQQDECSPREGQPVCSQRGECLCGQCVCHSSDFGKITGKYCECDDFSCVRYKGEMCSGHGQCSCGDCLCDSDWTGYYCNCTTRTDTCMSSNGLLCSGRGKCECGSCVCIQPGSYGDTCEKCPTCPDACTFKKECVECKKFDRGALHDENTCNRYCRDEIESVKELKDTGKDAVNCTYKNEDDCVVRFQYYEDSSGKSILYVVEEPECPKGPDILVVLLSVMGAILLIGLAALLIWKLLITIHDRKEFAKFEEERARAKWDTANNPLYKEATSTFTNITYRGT

B1: LM609: murine monoclonal antibody specific for the integrin αvβ3 (antibody, V domains shown)
VH: EVQLVESGGGLVKPGRSLRLSCAASGFAFSSYDMSWVRQIPEKRLEWVAKVSSGGGSTYYLDTVQGRFTISRDNAKNTLYLQMSSLNSEDTAMYYCARHNYGSFAYWGQGTLVTVSA
VL: DIVLTQSPATLSVTPGDSVSLSCQASQSISNHLHWYQQKSHESPRLLIKYRSQSISGIPSRFSGSGSGTDFALSINSVETEDFGMYFCQQSGSWPHTFGGGTKLEIK
On to B1, for which the “granulation tissue development in cutaneous wound” value with αvβ3 [1] was “inhibitor”. In addition, the “attachment of M21 cells to αvβ ligands” value with M21 cells is on record as “inhibits”. In the data set with αvβ3 [2], the tumor induced angiogenesis entry is given as “inhibitor”. Moreover, in the data set with αvβ3 [3], the “smooth muscle cell migration such as that occurring during restenosis” value is “inhibitor”.
